Source: US20250369024A1, “Acyloin Condensation Reactions, Enzymes, and Products Thereof” (Mojia Biotech Pte. Ltd., priority 2023, published 2025)

Experiments:
Assay type in all cases: cell-based, E. coli
Acetaldehyde = test: HACS screening, acetaldehyde-C1 condensation (resting cells), lactic acid; conditions: 20 mM acetaldehyde and 20 mM formate, 3 hours
Source text: (§1) To implement the C1 elongation pathway for lactic acid production in vivo, we engineered vectors to independently control expression of various HACS candidates and the acyl-CoA transferase from Clostridium aminobutyricum (CaAbfT), with HACS under control of the IPTG-inducible T7 promoter in pCDFDuet-1 and CaAbfT under control of a cumate-inducible T5 promoter in pETDuet-1. As a host for these vectors, we used an engineered strain of E. coli based on MG1655(DE3) with knockouts for formaldehyde (ΔfrmA) and formate (ΔfdhF ΔfdnG ΔfdoG) oxidation as well as for glycolate utilization (ΔglcD).
(§2) In vivo product synthesis was conducted using M9 minimal media (6.78 g/L Na2HPO4, 3 g/L KH2PO4, 1 g/L NH4Cl, 0.5 g/L NaCl, 2 mM MgSO4, 100 μM CaCl2), and 15 μM thiamine-HCl) unless otherwise stated. Cells were initially grown in 96-deep well plates (USA Scientific, Ocala, FL) containing 0.5 mL of the above media further supplemented with 20 g/L glycerol, 10 g/L tryptone, and 5 g/L yeast extract. […]
Cells from the above pre-cultures were then centrifuged (4000 rpm, 22° C.), washed with the above minimal media without any carbon source, and resuspended with 1 mL of above minimal media containing indicated amounts of carbon source. […] After incubation at 30° C. for 3 hours, the cells were pelleted by centrifugation and the media was analyzed using HPLC.

Formaldehyde = test: HACS screening, formaldehyde-formyl-CoA condensation in vivo (resting cells), glycolate; conditions: 2.5 mM formaldehyde and 20 mM formate, 0.5 hours
Source text: as §1, with “glycolate” for “lactic acid”, “pETDuet-1” for “pCDFDuet-1”, “pCDFDuet-1 (FIG. 14C).” for “pETDuet-1.”, “(ΔglcD), which we expected could compete or interfere with the analysis of our pathway (FIG. 14B).” for “(ΔglcD).”
In vivo product synthesis was conducted using M9 minimal media (6.78 g/L Na2HPO4, 3 g/L KH2PO4, 1 g/L NH4Cl, 0.5 g/L NaCl, 2 mM MgSO4, 100 μM CaCl2), and 15 μM thiamine-HCl) unless otherwise stated. […]
Cells from the above pre-cultures were then centrifuged (4000 rpm, 22° C.), washed with the above minimal media without any carbon source, and resuspended with 1 mL of above minimal media containing indicated amounts of carbon source. […] After incubation at 30° C. for 0.5 hours, the cells were pelleted by centrifugation and the media analyzed (FIG. 14A).

Glycolaldehyde = test: HACS screening, glycolaldehyde-C1 condensation (resting cells), glyceric acid; conditions: 20 mM glycolaldehyde and 20 mM formate, 3 hour
Source text: To implement the C1 elongation pathway for glyceric acid production in vivo, we engineered vectors to independently control expression of various HACS candidates and the acyl-CoA transferase from Clostridium aminobutyricum (CaAbfT), with HACS under control of the IPTG-inducible T7 promoter in pCDFDuet-1 and CaAbfT under control of a cumate-inducible T5 promoter in pETDuet-1. As a host for these vectors, we used an engineered strain of E. coli based on MG1655(DE3) with knockouts for formaldehyde (ΔfrmA) and formate (ΔfdhF ΔfdnG ΔfdoG) oxidation as well as for glycolate utilization (ΔglcD).
as §2
Cells from the above pre-cultures were then centrifuged (4000 rpm, 22° C.), washed with the above minimal media without any carbon source, and resuspended with 1 mL of above minimal media containing indicated amounts of carbon source. […] After incubation at 30° C. for 3 hour, the cells were pelleted by centrifugation and the media was analyzed using HPLC.

B1: RuHACL: Engineered 2-hydroxyphytanoyl-CoA lyase [Rhodospirillales bacterium URHD0017], SEQ ID NO: 1 (protein)
chain: MSEVDGATLIARSLKQQGIDHLFGVVGFPITAIAAAAQKEGVAYLGMRNEQSAAYAAAAYGYLTGRPGAAVVVTGPGVVHGLSGLANAQQNCWPMILIGGASETYRGGMGAFQEERQVLIASPFCKFAHGIESVARIPFYVEMATRNAIYGRPGATYLDMPDDIIRGTCETDKIAQAERVPEAPRSVAPAENVEAALDLLEKAQRPLVLLGKGMAWSRGEDEVRAFIERTQVPFVRSPMGKGVMPDDHPLSASAARTLALQQADVIFLMGARLNWIFHFGLPPRYAKDVKVIQLDIAPEEIGHNKPTEVALVGDGKAIMAQLNKALVNRQWFHPKDTPWRQALTKKAAENVATIKPQVDDDQGPAGYYRALRDVAAWMPKNAILSAEGANTMDIGLTQLASSNARSVLNAGTYGTMGVGLGQAIAAAVSDPSRPVIHLSGDSAIGFSGMEMETLVRYNLPVKIVVLNNGGIGPGMPEIPENPMFNLKPNALIYGARYDKVMEAFGGKGIFVKEPKDIRKALDEAMAFKGPALVNVVLSQGSTRKAQQFAWHS
modifications: Rhodospirillales bacterium URHD0017 engineered 2-hydroxyphytanoyl-CoA lyase
- Product flux, substrate Acetaldehyde, product Lactate (Acetaldehyde): 78.1 μM/OD/h
- Product flux, substrate Formaldehyde, product Glycolate (Formaldehyde): 44.5 μM/OD/h
- Product flux, substrate Glycolaldehyde, product Glycerate (Glycolaldehyde): 7.2 μM/OD/h
